B1: library; numbered along this chain (parent)
chain: MAAAAAAAAEQQSSNGPVKKSMREKAVERRSVNKEHNSNFKAGYIPIDEDRLHKTGLRGRKGNLAICVIILLFILAVINLIITLVIWAVIRIGPNGCDSMEFHESGLLRFKQVSDMGVIHPLYKSTVGGRRNENLVITGNNQPIVFQQGTTKLSVENNKTSITSDIGMQFFDPRTQNILFSTDYETHEFHLPSGVKSLNVQKASTERITSNATSDLNIKVDGRAIVRGNEGVFIMGKTIEFHMGGNMELKAENSIILNGSVMVSTTRLPSSSSGDQLGSGDWVRYKLCMCADGTLFKVQVTSQNMGCQISDNPCGNTH

Variants of: B1
Test: SGCB cell-surface expression functional score (HA stain, bin4 vs bin1, normalised to synonymous) (log10 ratio); higher = more cell-surface SGCB (functional)
Method in brief: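 Human beta-sarcoglycan, tagged with HA and fused to YFP, was built into codon-saturation libraries and delivered by lentivirus at MOI <0.1 into HEK293 cells that stably express alpha-, gamma- and delta-sarcoglycan. After 72 hours, YFP-positive cells were sorted and grown for 5–7 days, then stained on ice with Alexa Fluor 647 anti-HA, fixed, sorted into four 5% intensity bins and amplicon-sequenced. Each variant's functional score is the log ratio of its frequency in the highest bin to that in the lowest bin, taken as the median across codons and transductions. Transductions were done in duplicate, and synonymous variants were scaled per section to mean 0, SD 0.5.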

First: MAAAAAAAAEQQSSNGPVKKSMREKAVERRSVNKEHNSNFKAGYIPIDEDRLHKTGLRGRKGNLAICVIILLFILAVINLIITLVIWAVIRIGPNGCDSMEFHESGLLRFKQVSDMGVIHPLYKSTVGGRRNENLVITGNNQPAVFQQGTTKLSVENNKTSITSDIGMQFFDPRTQNILFSTDYETHEFHLPSGVKSLNVQKASTERITSNATSDLNIKVDGRAIVRGNEGVFIMGKTIEFHMGGNMELKAENSIILNGSVMVSTTRLPSSSSGDQLGSGDWVRYKLCMCADGTLFKVQVTSQNMGCQISDNPCGNTH [I144A]
Second: MAAAAAAAAEQQSSNGPVKKSMREKAVERRSVNKEHNSNFKAGYIPIDEDRLHKTGLRGRKGNLAICVIILLFILAVINLIITLVIWAVIRIGPNGCDSMEFHESGLLRFKQVSDMGVIHPLYKSTVGGRRNENLVITGNNQPDVFQQGTTKLSVENNKTSITSDIGMQFFDPRTQNILFSTDYETHEFHLPSGVKSLNVQKASTERITSNATSDLNIKVDGRAIVRGNEGVFIMGKTIEFHMGGNMELKAENSIILNGSVMVSTTRLPSSSSGDQLGSGDWVRYKLCMCADGTLFKVQVTSQNMGCQISDNPCGNTH [I144D]
The “SGCB cell-surface expression functional score (log10)” value of the first is lower: -0.98 for the first, -0.57 for the second.

First: MAAAAAAAAEQQSSNGPVKKSMREKAVERRSVNKEHNSNFKAGYIPIDEDRLHKTGLRGRKGNLAICVIILLFILAVINLIITLVIWAVIRIGPNGCDSMEFHESGLLRFKQVSDMGVIHPLYKSTVGGRRNENLVITGNNQPEVFQQGTTKLSVENNKTSITSDIGMQFFDPRTQNILFSTDYETHEFHLPSGVKSLNVQKASTERITSNATSDLNIKVDGRAIVRGNEGVFIMGKTIEFHMGGNMELKAENSIILNGSVMVSTTRLPSSSSGDQLGSGDWVRYKLCMCADGTLFKVQVTSQNMGCQISDNPCGNTH [I144E]
Second: MAAAAAAAAEQQSSNGPVKKSMREKAVERRSVNKEHNSNFKAGYIPIDEDRLHKTGLRGRKGNLAICVIILLFILAVINLIITLVIWAVIRIGPNGCDSMEFHESGLLRFKQVSDMGVIHPLYKSTVGGRRNENLVITGNNQPHVFQQGTTKLSVENNKTSITSDIGMQFFDPRTQNILFSTDYETHEFHLPSGVKSLNVQKASTERITSNATSDLNIKVDGRAIVRGNEGVFIMGKTIEFHMGGNMELKAENSIILNGSVMVSTTRLPSSSSGDQLGSGDWVRYKLCMCADGTLFKVQVTSQNMGCQISDNPCGNTH [I144H]
The “SGCB cell-surface expression functional score (log10)” value of the first is lower: -1.11 for the first, -0.73 for the second.

First: MAAAAAAAAEQQSSNGPVKKSMREKAVERRSVNKEHNSNFKAGYIPIDEDRLHKTGLRGRKGNLAICVIILLFILAVINLIITLVIWAVIRIGPNGCDSMEFHESGLLRFKQVSDMGVIHPLYKSTVGGRRNENLVITGNNQPKVFQQGTTKLSVENNKTSITSDIGMQFFDPRTQNILFSTDYETHEFHLPSGVKSLNVQKASTERITSNATSDLNIKVDGRAIVRGNEGVFIMGKTIEFHMGGNMELKAENSIILNGSVMVSTTRLPSSSSGDQLGSGDWVRYKLCMCADGTLFKVQVTSQNMGCQISDNPCGNTH [I144K]
Second: MAAAAAAAAEQQSSNGPVKKSMREKAVERRSVNKEHNSNFKAGYIPIDEDRLHKTGLRGRKGNLAICVIILLFILAVINLIITLVIWAVIRIGPNGCDSMEFHESGLLRFKQVSDMGVIHPLYKSTVGGRRNENLVITGNNQPGVFQQGTTKLSVENNKTSITSDIGMQFFDPRTQNILFSTDYETHEFHLPSGVKSLNVQKASTERITSNATSDLNIKVDGRAIVRGNEGVFIMGKTIEFHMGGNMELKAENSIILNGSVMVSTTRLPSSSSGDQLGSGDWVRYKLCMCADGTLFKVQVTSQNMGCQISDNPCGNTH [I144G]
The “SGCB cell-surface expression functional score (log10)” value of the first is lower: -1.07 for the first, -0.85 for the second.

First: MAAAAAAAAEQQSSNGPVKKSMREKAVERRSVNKEHNSNFKAGYIPIDEDRLHKTGLRGRKGNLAICVIILLFILAVINLIITLVIWAVIRIGPNGCDSMEFHESGLLRFKQVSDMGVIHPLYKSTVGGRRNENLVITGNNQPCVFQQGTTKLSVENNKTSITSDIGMQFFDPRTQNILFSTDYETHEFHLPSGVKSLNVQKASTERITSNATSDLNIKVDGRAIVRGNEGVFIMGKTIEFHMGGNMELKAENSIILNGSVMVSTTRLPSSSSGDQLGSGDWVRYKLCMCADGTLFKVQVTSQNMGCQISDNPCGNTH [I144C]
Second: MAAAAAAAAEQQSSNGPVKKSMREKAVERRSVNKEHNSNFKAGYIPIDEDRLHKTGLRGRKGNLAICVIILLFILAVINLIITLVIWAVIRIGPNGCDSMEFHESGLLRFKQVSDMGVIHPLYKSTVGGRRNENLVITGNNQPFVFQQGTTKLSVENNKTSITSDIGMQFFDPRTQNILFSTDYETHEFHLPSGVKSLNVQKASTERITSNATSDLNIKVDGRAIVRGNEGVFIMGKTIEFHMGGNMELKAENSIILNGSVMVSTTRLPSSSSGDQLGSGDWVRYKLCMCADGTLFKVQVTSQNMGCQISDNPCGNTH [I144F]
The “SGCB cell-surface expression functional score (log10)” value of the first is higher: -0.33 for the first, -0.77 for the second.

Compared with MAAAAAAAAEQQSSNGPVKKSMREKAVERRSVNKEHNSNFKAGYIPIDEDRLHKTGLRGRKGNLAICVIILLFILAVINLIITLVIWAVIRIGPNGCDSMEFHESGLLRFKQVSDMGVIHPLYKSTVGGRRNENLVITGNNQQIVFQQGTTKLSVENNKTSITSDIGMQFFDPRTQNILFSTDYETHEFHLPSGVKSLNVQKASTERITSNATSDLNIKVDGRAIVRGNEGVFIMGKTIEFHMGGNMELKAENSIILNGSVMVSTTRLPSSSSGDQLGSGDWVRYKLCMCADGTLFKVQVTSQNMGCQISDNPCGNTH [P143Q], MAAAAAAAAEQQSSNGPVKKSMREKAVERRSVNKEHNSNFKAGYIPIDEDRLHKTGLRGRKGNLAICVIILLFILAVINLIITLVIWAVIRIGPNGCDSMEFHESGLLRFKQVSDMGVIHPLYKSTVGGRRNENLVITGNNQTIVFQQGTTKLSVENNKTSITSDIGMQFFDPRTQNILFSTDYETHEFHLPSGVKSLNVQKASTERITSNATSDLNIKVDGRAIVRGNEGVFIMGKTIEFHMGGNMELKAENSIILNGSVMVSTTRLPSSSSGDQLGSGDWVRYKLCMCADGTLFKVQVTSQNMGCQISDNPCGNTH [P143T] is higher in “SGCB cell-surface expression functional score (log10)” value: -0.7 for the first, -0.41 for the second.

First: MAAAAAAAAEQQSSNGPVKKSMREKAVERRSVNKEHNSNFKAGYIPIDEDRLHKTGLRGRKGNLAICVIILLFILAVINLIITLVIWAVIRIGPNGCDSMEFHESGLLRFKQVSDMGVIHPLYKSTVGGRRNENLVITGNNQSIVFQQGTTKLSVENNKTSITSDIGMQFFDPRTQNILFSTDYETHEFHLPSGVKSLNVQKASTERITSNATSDLNIKVDGRAIVRGNEGVFIMGKTIEFHMGGNMELKAENSIILNGSVMVSTTRLPSSSSGDQLGSGDWVRYKLCMCADGTLFKVQVTSQNMGCQISDNPCGNTH [P143S]
Second: MAAAAAAAAEQQSSNGPVKKSMREKAVERRSVNKEHNSNFKAGYIPIDEDRLHKTGLRGRKGNLAICVIILLFILAVINLIITLVIWAVIRIGPNGCDSMEFHESGLLRFKQVSDMGVIHPLYKSTVGGRRNENLVITGNNQNIVFQQGTTKLSVENNKTSITSDIGMQFFDPRTQNILFSTDYETHEFHLPSGVKSLNVQKASTERITSNATSDLNIKVDGRAIVRGNEGVFIMGKTIEFHMGGNMELKAENSIILNGSVMVSTTRLPSSSSGDQLGSGDWVRYKLCMCADGTLFKVQVTSQNMGCQISDNPCGNTH [P143N]
The “SGCB cell-surface expression functional score (log10)” value of the first is lower: -0.44 for the first, -0.09 for the second.

Going from MAAAAAAAAEQQSSNGPVKKSMREKAVERRSVNKEHNSNFKAGYIPIDEDRLHKTGLRGRKGNLAICVIILLFILAVINLIITLVIWAVIRIGPNGCDSMEFHESGLLRFKQVSDMGVIHPLYKSTVGGRRNENLVITGNNQKIVFQQGTTKLSVENNKTSITSDIGMQFFDPRTQNILFSTDYETHEFHLPSGVKSLNVQKASTERITSNATSDLNIKVDGRAIVRGNEGVFIMGKTIEFHMGGNMELKAENSIILNGSVMVSTTRLPSSSSGDQLGSGDWVRYKLCMCADGTLFKVQVTSQNMGCQISDNPCGNTH [P143K] to MAAAAAAAAEQQSSNGPVKKSMREKAVERRSVNKEHNSNFKAGYIPIDEDRLHKTGLRGRKGNLAICVIILLFILAVINLIITLVIWAVIRIGPNGCDSMEFHESGLLRFKQVSDMGVIHPLYKSTVGGRRNENLVITGNNQLIVFQQGTTKLSVENNKTSITSDIGMQFFDPRTQNILFSTDYETHEFHLPSGVKSLNVQKASTERITSNATSDLNIKVDGRAIVRGNEGVFIMGKTIEFHMGGNMELKAENSIILNGSVMVSTTRLPSSSSGDQLGSGDWVRYKLCMCADGTLFKVQVTSQNMGCQISDNPCGNTH [P143L], the “SGCB cell-surface expression functional score (log10)” value falls from -0.28 to -0.54.

First: MAAAAAAAAEQQSSNGPVKKSMREKAVERRSVNKEHNSNFKAGYIPIDEDRLHKTGLRGRKGNLAICVIILLFILAVINLIITLVIWAVIRIGPNGCDSMEFHESGLLRFKQVSDMGVIHPLYKSTVGGRRNENLVITGNNQMIVFQQGTTKLSVENNKTSITSDIGMQFFDPRTQNILFSTDYETHEFHLPSGVKSLNVQKASTERITSNATSDLNIKVDGRAIVRGNEGVFIMGKTIEFHMGGNMELKAENSIILNGSVMVSTTRLPSSSSGDQLGSGDWVRYKLCMCADGTLFKVQVTSQNMGCQISDNPCGNTH [P143M]
Second: MAAAAAAAAEQQSSNGPVKKSMREKAVERRSVNKEHNSNFKAGYIPIDEDRLHKTGLRGRKGNLAICVIILLFILAVINLIITLVIWAVIRIGPNGCDSMEFHESGLLRFKQVSDMGVIHPLYKSTVGGRRNENLVITGNNQYIVFQQGTTKLSVENNKTSITSDIGMQFFDPRTQNILFSTDYETHEFHLPSGVKSLNVQKASTERITSNATSDLNIKVDGRAIVRGNEGVFIMGKTIEFHMGGNMELKAENSIILNGSVMVSTTRLPSSSSGDQLGSGDWVRYKLCMCADGTLFKVQVTSQNMGCQISDNPCGNTH [P143Y]
The “SGCB cell-surface expression functional score (log10)” value of the first is higher: 0.69 for the first, -0.63 for the second.

First: MAAAAAAAAEQQSSNGPVKKSMREKAVERRSVNKEHNSNFKAGYIPIDEDRLHKTGLRGRKGNLAICVIILLFILAVINLIITLVIWAVIRIGPNGCDSMEFHESGLLRFKQVSDMGVIHPLYKSTVGGRRNENLVITGNNQVIVFQQGTTKLSVENNKTSITSDIGMQFFDPRTQNILFSTDYETHEFHLPSGVKSLNVQKASTERITSNATSDLNIKVDGRAIVRGNEGVFIMGKTIEFHMGGNMELKAENSIILNGSVMVSTTRLPSSSSGDQLGSGDWVRYKLCMCADGTLFKVQVTSQNMGCQISDNPCGNTH [P143V]
Second: MAAAAAAAAEQQSSNGPVKKSMREKAVERRSVNKEHNSNFKAGYIPIDEDRLHKTGLRGRKGNLAICVIILLFILAVINLIITLVIWAVIRIGPNGCDSMEFHESGLLRFKQVSDMGVIHPLYKSTVGGRRNENLVITGNNQRIVFQQGTTKLSVENNKTSITSDIGMQFFDPRTQNILFSTDYETHEFHLPSGVKSLNVQKASTERITSNATSDLNIKVDGRAIVRGNEGVFIMGKTIEFHMGGNMELKAENSIILNGSVMVSTTRLPSSSSGDQLGSGDWVRYKLCMCADGTLFKVQVTSQNMGCQISDNPCGNTH [P143R]
The “SGCB cell-surface expression functional score (log10)” value of the first is higher: 0.07 for the first, -0.34 for the second.

In the case of MAAAAAAAAEQQSSNGPVKKSMREKAVERRSVNKEHNSNFKAGYIPIDEDRLHKTGLRGRKGNLAICVIILLFILAVINLIITLVIWAVIRIGPNGCDSMEFHESGLLRFKQVSDMGVIHPLYKSTVGGRRNENLVITGNNQIIVFQQGTTKLSVENNKTSITSDIGMQFFDPRTQNILFSTDYETHEFHLPSGVKSLNVQKASTERITSNATSDLNIKVDGRAIVRGNEGVFIMGKTIEFHMGGNMELKAENSIILNGSVMVSTTRLPSSSSGDQLGSGDWVRYKLCMCADGTLFKVQVTSQNMGCQISDNPCGNTH [P143I], the “SGCB cell-surface expression functional score (log10)” value is reported as -0.11.
